Sequences and labels used below:
B1: C4-71N_mb7 (designed binder)
chain: MGDRRKEMDKVYRTAYKRITSTPDKEKRKEVVKEATEQLRRIAKDEEEKKKAAYMISFLKTLGSPEEILERARESLERAREASERGDEEEFRKAAEKALELAKRLVEQAKKEGDPWMVMWAALVALWVALLALRNGDKEVFKKAAESALEVAKRLVEVASKEGDPEMVLLAAWVALFVAWLAWLFGDKEVFKKAAESALEVAKRLVEVASKEGDPELVEEAAKVAEEVEKLAEKQGDEEVREKAWETWMEVWLLWLEVRLRKGGGGSLEHHHHHH
B2: C6-79C_mb7 (designed binder)
chain: MGSSDEEEARELEERAREAAKRAIEAAKRTGDPRVRELAEELVKLAIWAAVEVWLDPSSSDVNEALKLIVEAIEAAVRALEAAERTGDPEVRELARELVRLAVEAAEEVQRNPSSSDVNEALKLIVIAIEAAVRALEAAERTGDPEVRELARELVRLAVEAAEEVQRNPSSEEVNEALRKIIKLILFAVMVLELAEEIGDPTWREMARRAVREAVELAEEVQRDPSGWLGHGSDRRKEMDKVYRTAYKRITSTPDKEKRKEVVKEATEQLRRIAKDEEEKKKAAYMISFLKTLGSLEHHHHHH
B3: C2-58-2X_mb7 (designed binder)
chain: MHHHHHHAENLYFQSGSDEELLRELLKLLLKLLEQMGDEEARRVVEELREELEKKGDPRALVLAFALVILVFLLRILRELGDEELVRRVEELWEELLKEGDPQAMMEVFKLVQELQERRGSGSDRRKEMDKVYRTAYKRITSTPDKEKRKEVVKEATEQLRRIAKDEEEKKKAAYMISFLKTLGS
B4: C8-71C_mb7 (designed binder)
chain: MEKKIGPEEILERAKESLERAREASERGDEEEFRKAAEKALELAKRLVEQAKKEGDPELVLEAARVALWVAELAAKNGDKEVFKKAAESALEVAKRLVEVASKEGDPDLVAWAALVALWVAFLAFLNGDKEVFKKAAESALEVAKALMEVAMKVGAPWLVELAIAVARAVWLLAELFGDEEVRRRAEAFEIILRIAAIAVKAWLGGGGSDRRKEMDKVYRTAYKRITSTPDKEKRKEVVKEATEQLRRIAKDEEEKKKAAYMISFLKTLGSLEHHHHHH
B5: C4-71C_mb7 (designed binder)
chain: MGPEEILERARESLERAREASERGDEEEFRKAAEKALELAKRLVEQAKKEGDPWMVMWAALVALWVALLALRNGDKEVFKKAAESALEVAKRLVEVASKEGDPEMVLLAAWVALFVAWLAWLFGDKEVFKKAAESALEVAKRLVEVASKEGDPELVEEAAKVAEEVEKLAEKQGDEEVREKAWETWMEVWLLWLEVRLRKGGGGSDRRKEMDKVYRTAYKRITSTPDKEKRKEVVKEATEQLRRIAKDEEEKKKAAYMISFLKTLGSLEHHHHHH

This assay deals with human FGFR1c (human), P11362. As to the kind of experiment: cell-based or functional assay.
human FGFR1c (human), P11362, sequence (P11362 22-822): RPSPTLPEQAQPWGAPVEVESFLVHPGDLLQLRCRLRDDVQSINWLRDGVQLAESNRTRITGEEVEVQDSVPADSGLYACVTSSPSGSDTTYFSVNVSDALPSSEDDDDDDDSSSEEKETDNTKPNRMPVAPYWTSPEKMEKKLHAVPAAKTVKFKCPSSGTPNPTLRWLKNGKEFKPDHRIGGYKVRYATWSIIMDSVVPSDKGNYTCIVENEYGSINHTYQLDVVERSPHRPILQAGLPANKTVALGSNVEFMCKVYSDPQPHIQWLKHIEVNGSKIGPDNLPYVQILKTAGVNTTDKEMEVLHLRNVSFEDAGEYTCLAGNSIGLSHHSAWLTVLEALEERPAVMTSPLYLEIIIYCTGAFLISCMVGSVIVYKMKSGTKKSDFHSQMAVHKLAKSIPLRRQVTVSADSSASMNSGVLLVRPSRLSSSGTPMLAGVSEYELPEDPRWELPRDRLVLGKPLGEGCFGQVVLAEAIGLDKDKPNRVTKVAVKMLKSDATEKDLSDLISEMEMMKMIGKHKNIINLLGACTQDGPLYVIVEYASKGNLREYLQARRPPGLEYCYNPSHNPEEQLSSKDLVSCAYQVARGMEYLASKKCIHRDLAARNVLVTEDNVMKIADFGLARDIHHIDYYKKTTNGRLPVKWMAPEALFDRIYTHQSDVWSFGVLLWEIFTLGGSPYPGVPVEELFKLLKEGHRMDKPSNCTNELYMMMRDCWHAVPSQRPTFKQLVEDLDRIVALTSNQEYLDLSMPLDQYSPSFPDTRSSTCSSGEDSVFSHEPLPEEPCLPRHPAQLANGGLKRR
Consider B1, for which the EC50 of ERK1/2 phosphorylation (phosphoflow) in CHO-R1c cells is 0.89 nM and the EC50 of ERK phosphorylation (phosphoflow), C4-71N mb7 extension series worked out at 1.3 nM.

B2: the EC50 of ERK1/2 phosphorylation (phosphoflow) in CHO-R1c cells came out at 1.56 nM and the EC50 of intracellular calcium release in CHO-R1c cells is 0.38 nM.

Regarding B3, the EC50 of ERK1/2 phosphorylation (phosphoflow) in CHO-R1c cells turned out to be 0.63 nM and the EC50 of intracellular calcium release in CHO-R1c cells came out at 26 nM.

For the molecule B4, the EC50 of ERK1/2 phosphorylation (phosphoflow) in CHO-R1c cells is 2.07 nM and the EC50 of intracellular calcium release in CHO-R1c cells is 3.09 nM.

Turning to B5, the EC50 of ERK1/2 phosphorylation (phosphoflow) in CHO-R1c cells is 1.33 nM and the EC50 of intracellular calcium release in CHO-R1c cells came out at 0.72 nM.

These data come from patent publication US20260234209A1.
